Experimental data reported in US20090253630A1.

Biological target: PTHR-emGFP expressed in transfected HEK 293 cells
Experiment: cell-based or functional assay

- PTHR1 internalization at 20 min, 100 nM compound, percent of vehicle only control (baseline=100%) (% of vehicle only control): 166
- PTHR1 internalization at 40 min, 100 nM compound, percent of vehicle only control (baseline=100%) (% of vehicle only control): 177
- PTHR1 internalization at 60 min, 100 nM compound, percent of vehicle only control (baseline=100%) (% of vehicle only control): 224
- PTHR1 internalization at 180 min, 100 nM compound, percent of vehicle only control (baseline=100%) (% of vehicle only control): 175
Substance: PTH(1-38) (from UniProt P01270 32-69) (peptide)
